Experimental data published in patent publication US11098124B2, “CD31 shed as a molecular target for imaging of inflammation” (INSTITUT NATIONAL DE LA SANTE ET DE LA RECHERCHE MEDICALE …, priority 2016, dated 2021).
Entries after “also recorded” stand apart in the source; their conditions may differ. Where a SMILES comes first, the peptide text is derived from it. [ ]: non-standard residue; d: D form. The star is where a group is joined. ξ: configuration not given here. HYNIC = NNc1ccc(C(=O)*)cn1; PEG3 = NCCOCCOCCOCCC(=O)O; ξK = NCCCCC(N)C(=O)O

Key:
[1] = system: abdominal aorta aneurysm (AAA) rat model of vascular inflammation; assay: SPECT/CT imaging in abdominal aorta aneurysm (AAA) model; assay type: in vivo; conditions: for Pattern of biodistribution / blood clearance route (in words): AAA rat, 74 MBq i.v., SPECT/CT
Description: Rat model of vascular inflammation that has been set up at the laboratory: the experimental abdominal aorta aneurysm (AAA) induced by local infusion of elastase and followed by intravenous injection of a periodontal bacterium present in human AAA (Porphyromonas gingivalis) and known to induce AAA inflammation (Delbosc et al., 2011, PLoS ONE 6(4): e18679. doi:10.1371/journal.pone.0018679).
Immediately after intravenous injection via the penis vein of 74 MBq of radiolabelled HYNIC-P8RI (obtained using Tricine/EDDA), sequential whole-body acquisitions (every 10 minutes for the first hour) were performed with a hybrid SPECT/CT camera (NanoSPECT/CT, Bioscan Inc.) dedicated to small animals. 10. […] Results 1. Radiolabeling 6-Hydrazinopyridine-3-carboxylic acid (HYNIC) was coupled to the N-terminal amino-acid of the P8RI peptide via a 3(PEG) spacer to obtain HYNIC-P8RI. HYNIC-P8RI was then labeled at high specific activities (>71 GBq/μmol) using tricine, EDDA or Tricine/EDDA as coligands. The tricine/EDDA exchange labeling strategy was chosen because of high labeling yield and resulting in a single major specie as analyzed by HPLC (see FIG. 1).

[2] = male wistar rat, 74 MBq, urine from bladder 1 hour after injection; listed as [99mTc]EDDA/HYNIC-P8RI
Description: (§1) A Dionex Ultimate 3000 system coupled to a Berthold radiometric detector was used for RP-HPLC analysis. A ACE 3 C18, 3μ, 100 Å, 150×4.6 mm column, at a flow rate of 1 mL/min and with UV detection at 220 nm, was employed with the following mobile phases, A: 0.1% TFA/water), B Acetonitrile (ACN). Gradient was: 0-2 min 23% B, 2-20 min 23-50% B, 20-23 min 50-100% B, 23-25 min 100-23% B, 25-28 min 23% B. 2.2 Thin Layer Chromatography TLC was performed using a radiochromatogaph (MiniGita, Raytest, Germany). Stationary phase was silica gel (ITLC-SG, Agilent technologies, USA) and different mobile phases were employed. MEK was used to determine the amount of free ^99mTcO4^− (Rf=1), Anticoagulant Citrate Dextrose Solution (ACD-A, Baxter International, USA) to determine non-peptide-bound ^99mTc-coligands and ^99mTcO4^− (Rf=1), 60% ACN for ^99mTc-colloid (Rf=0). […] In Vitro Stability Study Stability of ^99mTc complexes was assessed in fresh human plasma at 37° C. after 0 min, 30 min, 1 hour, 2 hours and 4 hours of incubation at a concentration of 100 μmol/mL. […] Supernatants were collected and filtered (Millex-GV 0.22 μm PVDF, Merck Millipore, Germany) then assessed by radio-HPLC. […] After one hour, rat was sacrificed and urine was directly collected from the bladder using a syringe and analyzed by radio-HPLC after a 0.22 μm filtration (Millex-GV 0.22 μm PVDF, Merck Millipore, Germany). […]

[3] = 37° C.
Description: as §1

plasma proteins = assay: in vitro; conditions: human, fresh human plasma
Description: as §1

For `CC(C)C[C@@H](NC(=O)[C@@H](C)NC(=O)[C@H]1CCCN1C(=O)[C@@H](Cc1c[nH]c2ccccc12)NC(=O)C(CCCCN)NC(=O)CCOCCOCCOCCNC(=O)c1ccc(NN)nc1)C(=O)N[C@H](Cc1ccccc1)C(=O)N[C@@H](C(=O)N[C@H](CCCNC(=N)N)C(=O)O)C(C)C` (stereo partly drawn) [99mTc-HYNIC-P8RI, metal not drawn] ({HYNIC-PEG3}-[ξK][dW][dP][dA][dL][dF][dV][dR]-OH), the “Pattern of biodistribution / blood clearance route (in words)” value [1] was “almost exclusive renal uptake and excretion”, the “Pattern of biodistribution / blood clearance route (in words)” value ([1]; listed as [99mTc]EDDA/HYNIC-P8RI) was “tracer elimination via kidneys; also recorded: almost exclusively renal” and the “Blood clearance rate (in words)” value ([1]; in vivo, rat) was “rapid blood clearance”. For the same compound, the “Time of peak activity in kidneys and bladder after injection” value ([1]; rat, i.v. injection) was 1 h, the “In vivo stability: species excreted in rat urine by radio-HPLC (in words)” value [2] was “unaltered form of the peptide” and the “RCP (radiochemical purity) after incubation in human plasma” value ([3]; 4 h of incubation, tricine/EDDA coligands) was greater than 89%. For the same compound, the “In vitro stability in human plasma (in words)” value ([3]; up to 4 h, radio-HPLC, listed as [99mTc]EDDA/HYNIC-P8RI) was “no significant release of degraded radiolabelled peptide” and the fraction unbound at 4 h (plasma proteins) was greater than 0.95.
